The source of these data is the supplement of paper PMC9112550, “Optimization of the antimicrobial peptide Bac7 by deep mutational scanning” (BMC Biology, 2022).

This data set deals with Escherichia coli TOP10. Put plainly: shrunken log2 fold change of peptide-encoding DNA abundance (4.5 h post-induction vs induction); higher = less antimicrobial activity (less host growth inhibition). As to conditions: time post-induction: 4.5 h; library: site-saturation at positions 5, 18, 19, 20.
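Note: peptides expressed intracellularly from a pBAD plasmid library in pooled LB shake-flask culture, induced with 0.3% L-arabinose, DNA abundance read by NGS, three biological replicates, DESeq2 with apeglm shrinkage.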

On to RRIRMRPPRLPRPRPRPHHQPRP, for which the “shrunken log2 fold change” value is -0.526.
On to RRIRLRPPRLPRPRPRPLKRPRP, for which the “shrunken log2 fold change” value was -0.0716.
Under RRIRLRPPRLPRPRPRPEQFPRP stands -0.141.
Under RRIRMRPPRLPRPRPRPICSPRP stands 0.241; under RRIRQRPPRLPRPRPRPFCGPRP, 0.0215; under RRIRNRPPRLPRPRPRPHTDPRP, -0.373.
Under RRIRQRPPRLPRPRPRPDHIPRP stands -0.0197; under RRIRQRPPRLPRPRPRPATGPRP, 0.0181.
For the sequence RRIRRRPPRLPRPRPRPPWDPRP, the “shrunken log2 fold change” value is 0.577.
Under RRIRGRPPRLPRPRPRPRDKPRP stands 0.373.
With RRIRERPPRLPRPRPRPLADPRP, the “shrunken log2 fold change” value is -0.14.
Under RRIRFRPPRLPRPRPRPPHSPRP stands 0.386; under RRIRIRPPRLPRPRPRPFNNPRP, -0.318; under RRIRVRPPRLPRPRPRPTEQPRP, 0.0304.
As to RRIRDRPPRLPRPRPRPWMAPRP, the “shrunken log2 fold change” value was -0.499.
Under RRIRERPPRLPRPRPRPLVNPRP stands -0.456; under RRIRHRPPRLPRPRPRPPWQPRP, -0.0158; under RRIRDRPPRLPRPRPRPYWTPRP, -0.195.
Under RRIRARPPRLPRPRPRPEGQPRP stands 1.2; under RRIRNRPPRLPRPRPRPNNPPRP, -0.511.
As to RRIRTRPPRLPRPRPRPPRQPRP, the “shrunken log2 fold change” value is 0.52.
Under RRIRPRPPRLPRPRPRPQCRPRP stands 0.00385.
On to RRIRFRPPRLPRPRPRPHSTPRP, for which the “shrunken log2 fold change” value was -0.0436.
Under RRIRRRPPRLPRPRPRPRECPRP stands -0.12; under RRIRMRPPRLPRPRPRPHLSPRP, -0.0805; under RRIRQRPPRLPRPRPRPRQWPRP, 0.254.
Under RRIRWRPPRLPRPRPRPDFSPRP stands -0.0269; under RRIRGRPPRLPRPRPRPELIPRP, 0.408.
Under RRIRRRPPRLPRPRPRPWCMPRP stands -0.107; under RRIRKRPPRLPRPRPRPMDNPRP, 0.103; under RRIRMRPPRLPRPRPRPAYSPRP, -0.166.
In the case of RRIRGRPPRLPRPRPRPASTPRP, the “shrunken log2 fold change” value came to 0.653.
Under RRIRRRPPRLPRPRPRPITGPRP stands 0.111; under RRIRHRPPRLPRPRPRPANPPRP, 0.0212.
Under RRIRQRPPRLPRPRPRPYWWPRP stands -0.143.
Under RRIRARPPRLPRPRPRPHFGPRP stands 0.0349; under RRIRQRPPRLPRPRPRPDNTPRP, -0.178.
Regarding RRIRLRPPRLPRPRPRPQHNPRP, the “shrunken log2 fold change” value is -0.507.
Under RRIRCRPPRLPRPRPRPLDVPRP stands -0.41; under RRIRIRPPRLPRPRPRPQKYPRP, -0.784; under RRIRIRPPRLPRPRPRPNGSPRP, 0.0061.
As to RRIRGRPPRLPRPRPRPVGNPRP, the “shrunken log2 fold change” value was found to be 0.204.
Under RRIRQRPPRLPRPRPRPEMVPRP stands -0.0549; under RRIRDRPPRLPRPRPRPDGTPRP, 0.184; under RRIRWRPPRLPRPRPRPVQCPRP, 0.039.
Under RRIRCRPPRLPRPRPRPAYNPRP stands -0.619; under RRIRLRPPRLPRPRPRPNSVPRP, -0.11.
Consider RRIRERPPRLPRPRPRPVDCPRP, for which the “shrunken log2 fold change” value was found to be 0.0769.
Under RRIRFRPPRLPRPRPRPDDPPRP stands 0.212.
Under RRIRIRPPRLPRPRPRPDFMPRP stands -0.661; under RRIRNRPPRLPRPRPRPSFNPRP, -0.143; under RRIRQRPPRLPRPRPRPADLPRP, -0.0217.
Under RRIRGRPPRLPRPRPRPYLNPRP stands -0.233; under RRIRRRPPRLPRPRPRPPRCPRP, 1.49; under RRIRRRPPRLPRPRPRPTENPRP, 0.464.
With RRIRMRPPRLPRPRPRPIHHPRP, the “shrunken log2 fold change” value is -0.724.
Under RRIRDRPPRLPRPRPRPGFDPRP stands 0.926; under RRIRARPPRLPRPRPRPPYLPRP, -0.188; under RRIRDRPPRLPRPRPRPFKDPRP, -0.00443.
Under RRIRFRPPRLPRPRPRPAQEPRP stands 0.351.
Under RRIRQRPPRLPRPRPRPWVCPRP stands -0.208.
Consider RRIRHRPPRLPRPRPRPQWEPRP, for which the “shrunken log2 fold change” value is -0.0718.
Under RRIRDRPPRLPRPRPRPLFYPRP stands -0.258; under RRIRMRPPRLPRPRPRPYDEPRP, 0.0491.
Under RRIRIRPPRLPRPRPRPVCCPRP stands -0.0749.
Consider RRIRPRPPRLPRPRPRPGPVPRP, for which the “shrunken log2 fold change” value amounted to 0.258.
Under RRIRYRPPRLPRPRPRPSKYPRP stands -0.401; under RRIRYRPPRLPRPRPRPVVHPRP, -0.00114.
Under RRIRQRPPRLPRPRPRPEIWPRP stands 0.618; under RRIRMRPPRLPRPRPRPYQYPRP, -0.0219; under RRIRWRPPRLPRPRPRPDFVPRP, 0.0377.
Under RRIRYRPPRLPRPRPRPGEAPRP stands 0.124.
RRIRFRPPRLPRPRPRPLQHPRP: the “shrunken log2 fold change” value is -0.134.
Under RRIRKRPPRLPRPRPRPGSFPRP stands 0.133.
Under RRIRPRPPRLPRPRPRPCHSPRP stands -0.871.
Under RRIRCRPPRLPRPRPRPRHAPRP stands 0.451.
Regarding RRIRVRPPRLPRPRPRPLMYPRP, the “shrunken log2 fold change” value is -0.564.
Under RRIRQRPPRLPRPRPRPGDDPRP stands 0.176.
Under RRIRERPPRLPRPRPRPRVPPRP stands 0.425; under RRIRCRPPRLPRPRPRPWQWPRP, 0.187; under RRIRMRPPRLPRPRPRPGAQPRP, 1.24.
For the sequence RRIRSRPPRLPRPRPRPPFWPRP, the “shrunken log2 fold change” value worked out at 0.837.
Under RRIRIRPPRLPRPRPRPNFSPRP stands -0.26; under RRIRTRPPRLPRPRPRPQCAPRP, 0.151; under RRIRHRPPRLPRPRPRPPDRPRP, 0.385.
For RRIRCRPPRLPRPRPRPSSMPRP, the “shrunken log2 fold change” value is -0.859.
Take RRIRVRPPRLPRPRPRPDDGPRP: the “shrunken log2 fold change” value turned out to be 0.0292.
Under RRIRVRPPRLPRPRPRPADLPRP stands 0.0387.
Under RRIRERPPRLPRPRPRPGLFPRP stands -0.0491; under RRIRQRPPRLPRPRPRPLCIPRP, -0.28; under RRIRTRPPRLPRPRPRPNKHPRP, -0.448.
Under RRIRARPPRLPRPRPRPPSFPRP stands 0.415; under RRIRKRPPRLPRPRPRPERSPRP, 0.245; under RRIRNRPPRLPRPRPRPVWEPRP, 0.0809.
As to RRIRKRPPRLPRPRPRPIYCPRP, the “shrunken log2 fold change” value was -0.0201.
Under RRIRNRPPRLPRPRPRPVMFPRP stands -0.0883; under RRIRNRPPRLPRPRPRPWYCPRP, -0.451.
Under RRIRNRPPRLPRPRPRPAMCPRP stands -0.199; under RRIRNRPPRLPRPRPRPRYAPRP, -0.0268.
Under RRIRSRPPRLPRPRPRPEHVPRP stands -0.191.
As for RRIRIRPPRLPRPRPRPCLMPRP, the “shrunken log2 fold change” value is -0.601.
Under RRIRTRPPRLPRPRPRPWYIPRP stands -0.146.
Under RRIRDRPPRLPRPRPRPKGFPRP stands -0.073; under RRIRCRPPRLPRPRPRPTEYPRP, -0.564.
Under RRIRSRPPRLPRPRPRPRVGPRP stands 0.578; under RRIRNRPPRLPRPRPRPLLTPRP, -0.046; under RRIRNRPPRLPRPRPRPASVPRP, -0.0792.
Take RRIRCRPPRLPRPRPRPSDWPRP: the “shrunken log2 fold change” value was -0.0723.
Under RRIRPRPPRLPRPRPRPAFRPRP stands 0.211; under RRIRTRPPRLPRPRPRPKNKPRP, -0.525; under RRIRGRPPRLPRPRPRPWIKPRP, -0.0249.
Under RRIRMRPPRLPRPRPRPKYYPRP stands -0.0662; under RRIRQRPPRLPRPRPRPYRYPRP, -0.0123; under RRIRTRPPRLPRPRPRPVPTPRP, 3.08.
In the case of RRIRVRPPRLPRPRPRPVNGPRP, the “shrunken log2 fold change” value came to 0.158.
Under RRIRFRPPRLPRPRPRPNGEPRP stands 0.0684; under RRIRMRPPRLPRPRPRPDMQPRP, 2.
Under RRIRHRPPRLPRPRPRPAFEPRP stands -0.0402.
Under RRIRKRPPRLPRPRPRPFNFPRP stands -0.296; under RRIRCRPPRLPRPRPRPQEMPRP, -0.627; under RRIRYRPPRLPRPRPRPRMHPRP, -0.156.
With RRIRNRPPRLPRPRPRPELTPRP, the “shrunken log2 fold change” value came out at 0.162.
Under RRIRPRPPRLPRPRPRPQMQPRP stands -0.254; under RRIRPRPPRLPRPRPRPFVCPRP, -0.395.
Consider RRIRRRPPRLPRPRPRPKSNPRP, for which the “shrunken log2 fold change” value was determined as 0.0649.
